Test results: patent US20220340682A1 (Sanofi, published 2022)
Values joined by “and” are separate entries in the source; they are usually repeats but may differ in a detail not shown here. Identical values can stand only once.

T1: cCEACAM5, M. fascicularis CEACAM5 ECD (35-688) (Macaca fascicularis)
T1 construct: ECD followed by a 24 amino acid extension containing a His-Tag; also called cynomolgus CEACAM5; monkey CEACAM5
T1 chain: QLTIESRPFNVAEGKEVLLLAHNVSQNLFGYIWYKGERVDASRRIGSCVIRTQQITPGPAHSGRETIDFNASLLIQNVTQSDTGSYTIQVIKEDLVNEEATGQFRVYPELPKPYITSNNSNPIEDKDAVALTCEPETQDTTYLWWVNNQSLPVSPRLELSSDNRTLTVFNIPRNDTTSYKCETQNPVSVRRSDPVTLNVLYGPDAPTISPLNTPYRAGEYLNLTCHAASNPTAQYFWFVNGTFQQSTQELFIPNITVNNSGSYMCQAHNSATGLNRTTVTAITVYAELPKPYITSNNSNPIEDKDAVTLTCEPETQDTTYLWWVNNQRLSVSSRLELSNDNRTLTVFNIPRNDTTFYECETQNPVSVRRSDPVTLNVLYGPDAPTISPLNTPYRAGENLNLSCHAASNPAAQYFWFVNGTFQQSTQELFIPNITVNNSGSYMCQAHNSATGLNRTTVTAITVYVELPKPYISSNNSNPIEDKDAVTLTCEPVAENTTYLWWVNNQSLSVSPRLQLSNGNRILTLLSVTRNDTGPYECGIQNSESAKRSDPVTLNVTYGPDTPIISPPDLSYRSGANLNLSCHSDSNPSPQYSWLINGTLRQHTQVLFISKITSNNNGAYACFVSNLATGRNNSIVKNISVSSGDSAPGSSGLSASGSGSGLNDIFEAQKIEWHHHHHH

T2: hCEACAM5, human CEACAM5 ECD (35-685) (human, UniProt P06731 35-685)
T2 construct: produced in HEK293; also called human CEACAM5 protein; human CEACAM5 extracellular domain
T2 sequence: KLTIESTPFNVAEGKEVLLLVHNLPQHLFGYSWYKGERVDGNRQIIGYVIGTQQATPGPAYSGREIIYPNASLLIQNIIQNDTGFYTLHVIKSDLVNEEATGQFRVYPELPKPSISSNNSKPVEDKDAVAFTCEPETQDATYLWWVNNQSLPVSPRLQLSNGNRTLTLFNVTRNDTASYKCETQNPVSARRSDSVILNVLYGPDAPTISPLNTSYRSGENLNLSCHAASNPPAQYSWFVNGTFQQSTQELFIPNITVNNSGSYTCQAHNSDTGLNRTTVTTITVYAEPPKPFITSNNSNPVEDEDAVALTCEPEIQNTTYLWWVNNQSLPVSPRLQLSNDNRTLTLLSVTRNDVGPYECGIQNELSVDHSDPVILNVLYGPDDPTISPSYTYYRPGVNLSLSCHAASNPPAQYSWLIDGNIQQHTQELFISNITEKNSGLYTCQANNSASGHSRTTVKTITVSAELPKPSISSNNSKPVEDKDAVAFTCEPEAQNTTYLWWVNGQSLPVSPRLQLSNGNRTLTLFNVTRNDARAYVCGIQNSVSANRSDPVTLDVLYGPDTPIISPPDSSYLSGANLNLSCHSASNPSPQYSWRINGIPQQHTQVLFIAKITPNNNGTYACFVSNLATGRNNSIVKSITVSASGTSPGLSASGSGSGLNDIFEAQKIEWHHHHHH

B1: huMAb2-3 (antibody, human IgG1, kappa, V domains shown)
VH: EVQLQESGPGLVKPGGSLSLSCAASGFVFSSYDMSWVRQTPERGLEWVAYISSGGGITYAPSTVKGRFTVSRDNAKNTLYLQMNSLTSEDTAVYYCAAHYFGSSGPFAYWGQGTLVTVSS
VL: DIQMTQSPASLSASVGDRVTITCRASENIFSYLAWYQQKPGKSPKLLVYNTRTLAEGVPSRFSGSGSGTDFSLTISSLQPEDFATYYCQHHYGTPFTFGSGTKLEIKR
notes: Humanized MAb2, human IgG1 / Ckappa; also called MAb2_VL1cVH1a-IgG1
B2: huMAb2-1 (antibody, V domains shown)
VH: EVQLQESGPGLVKPGGSLSLSCAASGFVFSSYDMSWVRQTPERRLEWVAYISSGGGITYFPSTVKGRFTVSRDNAKNTLYLQMNSLTSEDTAIYYCAAHYFGSSGPFAYWGQGTLVTVSA
VL: DIQMTQSPASLSASVGDTVTITCRASENIFSYLAWYQQKPGKSPKLLVYNTKTLAEGVPSRFSGSGSGTQFSLTISSLQPEDFGSYYCQHHYGTPFTFGSGTKLEIK
notes: Humanized MAb2 (VL1 + VH1) fused to human IgG1 and human Ckappa constant domains; also called MAb2_VL1VH1-IgG1; MAb2VL1VH1-IgG1
B3: huMAb2-2 (antibody, V domains shown)
VH: EVQLQESGPGLVKPGGSLSLSCAASGFVFSSYDMSWVRQTPERGLEWVAYISSGGGITYAPSTVKGRFTVSRDNAKNTLYLQMNSLTSEDTAVYYCAAHYFGSSGPFAYWGQGTLVTVSS
VL: DIQMTQSPASLSASVGDRVTITCRASENIFSYLAWYQQKPGKSPKLLVYNTKTLAEGVPSRFSGSGSGTDFSLTISSLQPEDFATYYCQHHYGTPFTFGSGTKLEIK
notes: Humanized MAb2 (VL1a + VH1a) fused to human IgG1 and human Ckappa constant domains; also called MAb2_VL1aVH1a-IgG1; MA2_VL1aVH1a-IgG1
B4: chMAb2 (antibody, human IgG1, kappa, V domains shown)
VH: EVQLQESGGVLVKPGGSLKLSCAASGFVFSSYDMSWVRQTPEKRLEWVAYISSGGGITYFPDTVQGRFTVSRDNAKNTLYLQMNSLKSEDTAIYYCAAHYFGSSGPFAYWGQGTLVTVSA
VL: DIQMTQSPASLSASVGETVTITCRASENIFSYLAWYQQKQGKSPQLLVYNTKTLAEGVPSRFSGSGSGTQFSLKINSLQPEDFGSYYCQHHYGTPFTFGSGTKLEIKR
notes: Chimeric, human IgG1, Ck isotype; also called MAb2-IgG1; chimeric MAb2
B5: huMAb2-4 (antibody, human IgG1, kappa, V domains shown)
VH: EVQLQESGPGLVKPGGSLSLSCAASGFVFSSYDMSWVRQTPERRLEWVAYISSGGGITYFPSTVKGRFTVSRDNAKNTLYLQMNSLTSEDTAIYYCAAHYFGSSGPFAYWGQGTLVTVSA
VL: DIQMTQSPASLSASVGDTVTITCRASENIFSYLAWYQQKPGKSPKLLVYNTRTLAEGVPSRFSGSGSGTQFSLTISSLQPEDFGSYYCQHHYGTPFTFGSGTKLEIKR
notes: Humanized MAb2, human IgG1 / Ckappa; also called MAb2_VL1d VH1-IgG1; MAb2_VL1dVH1-IgG1

Columns and labels:
[1] = target: T1, cCEACAM5, M. fascicularis CEACAM5 ECD …; assay: ELISA
[2] = target: T2, hCEACAM5, human CEACAM5 ECD (35-685); assay: ELISA, chimeric mAb
[3] = target: T1, cCEACAM5, M. fascicularis CEACAM5 ECD …; assay: ELISA, chimeric mAb

Row | percentage of binding compared to full binding with cynomolgus CEACAM5 [1] [%] | EC50 [2] | EC50 [3] | Binder
1 | 100 |  |  | B1
2 | 100 |  |  | B2
3 | 100 |  |  | B3
4 | 100 | 0.16 nM and 0.14 nM | 0.13 nM and 0.17 nM | B4
5 | 100 |  |  | B5
